These results are taken from patent US5602102A, “Dipeptidyl peptidase-I inhibitors and uses thereof” (Board of Regents, The Univ. of TX System, priority 1992, dated 1997).

In one test the test system is NK cells (Yac-1 targets). Kind of test: NK function of spleen cells, specific lysis of Yac-1. In kind it is in vivo, murine. To be noted: spleen cells of saline injected mice treated with 250 μM Leu-Leu-Ome. The source says:
(§1) The Yac-1 represents a standard target for natural killer (NK) cells.

The test system of test [1] is BLT esterase (granzyme A). Briefly: BLT esterase activity in IL2 activated human PBL. The settings on record: IL2 activated Leu--Leu--OMe treated PBL. In kind it is cell-based. The source says: The cells were then harvested, disrupted in a dounce homogenizer, the nuclei pelleted and residual intact cells removed by centrifugation and the granule fraction localized on discontinuous Percoll gradients. […] Thus, Leu--Leu--OMe sensitive, DPPI enriched cells are the source of BLT esterase in such IL2 activated cultures.

A further test has as its system CTL precursors. Briefly: MLC activated anti-H-2 specific CTL from spleen cells. In kind it is in vivo, murine. To be noted: spleen cells of saline injected mice treated with 250 μM Leu-Leu-Ome.
From the text: as §1
Unlike control cells, spleen cells in which DPPI activity was inhibited were resistant to any discernible toxic effects of Leu--Leu--OMe on NK function of the capacity to generate anti-H-2^d specific CTL.

Test [2] addresses T1, human dipeptidyl peptidase-I (Homo sapiens, UniProt P53634). Briefly: Effect of protease inhibitors on DPPI activity (purified enzyme). In kind it is biochemical. Set-up: Human DPPI is now established to constitute a 200,000 Da glycoprotein with 24,000 Da subunits; from tissue; host or cells: human cadaveric spleen. The settings on record: for effect on DPPI activity (in words): screening conditions pH 5.5. Here is the method: Note. Purified human dipeptidyl peptidaseI (0.4 μg) was preincubated
with each of the inhibitors at the stated concentration for 15 min at
37° C.. Each sample was diluted 3fold with assay buffer containing
substrate and incubated for an additional 20 min.

Test [3] concerns the target T2, BLT esterase (granzyme A) (Mus musculus, UniProt P11032).
T2 construct: endogenous in cells; host or cells: alloreactive murine CD8(+) T cells, whole cells or Percoll granule fractions
Briefly: BLT esterase activity in granule fractions of control CD8(+) CTL, in vitro incubation with inhibitor. In kind it is biochemical, murine. To be noted: in vitro incubation with 1 mM. Here is the method: 193, Academic Press, New York).
Cells were incubated for 5 minutes on ice in hypotonic homogenization buffer (0.1× PBS salts, 1 mM MgCl2). The cells were disrupted with a glass pestle homogenizer and isotonic conditions restored by the addition of 10× PBS salts. The homogenates were cleared of cell debris and intact cells by centrifugation at 600 xg for 2 minutes. The soluble extracts were layered on discontinuous Percoll gradients (6 ml 39%, 6 ml 90% Percoll) and centrifuged .for one hour at 17,000 xg. The gradients were fractionated by removing 1 ml aliquots from the top.
Alloreactive CD8(+) T-cells were homogenized and fractionated on discontinuous Percoll gradients.

A further test addresses DPPI (Homo sapiens, UniProt P53634). The settings on record: cited from earlier work.
The subject of a further test is NK cells. Briefly: Depletion of NK cells by dipeptide esters. In kind it is cell-based.
The target in test [4] is T1, human dipeptidyl peptidase-I.
Test [5] deals with human granzyme A proenzyme (human) (UniProt P12544).
In test [6] the target is human leukocyte elastase proenzyme (human) (UniProt P08246).
For test [7], the target named is propeptide-bearing form of human cathepsin G (human) (UniProt P08311).
In test [8] the target is murine granzyme A proenzyme (murine) (UniProt P11032). To be noted: scale: Δabsorbance410/hour per cells.

Where a SMILES comes first, the peptide text is derived from it. The star is where a group is joined. Cbz = O=C(OCc1ccccc1)*; CHN2 = [N-]=[N+]=C*

T2 sequence (P11032 29-260): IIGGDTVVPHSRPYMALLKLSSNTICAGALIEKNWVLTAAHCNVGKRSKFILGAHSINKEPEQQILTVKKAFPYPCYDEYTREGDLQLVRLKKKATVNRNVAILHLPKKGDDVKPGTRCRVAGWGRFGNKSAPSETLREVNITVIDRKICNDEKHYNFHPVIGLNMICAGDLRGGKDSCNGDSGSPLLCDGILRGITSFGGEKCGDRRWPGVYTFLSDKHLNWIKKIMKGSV

Regarding `COC(=O)[C@H](CC(C)C)NC(=O)[C@@H](N)CC(C)C` [Leu--Leu--OMe], the “NK Function % Specific Lysis Yac-1” value with NK cells (Yac-1 targets) (20:1) and with NK cells (Yac-1 targets) (80:1) was less than 1 % Specific Lysis each time. In addition, in test [1], the “BLT esterase activity” value is listed as “could not be detected”. For the same compound, the “MLC Activated Anti-H-2° Spec. CTL” value with CTL precursors (20:1) came out at 1; in the test with CTL precursors (80:1), 3.

On to `CCN1C(=O)C=CC1=O` [N-Ethylmaleimide], for which the remaining activity at 1000 µM in [2] (inhibitor 1 mM, preincubated 15 min at 37° C., read-out: Percentage control activity) is 63%. Besides, the “effect on DPPI activity (in words)” value in test [2] is listed as “inhibited”.

For the compound `O=S(=O)(F)Cc1ccccc1` [PMSF, phenylmethylsulfonylfluoride], in [3], the “BLT esterase activity in granule fractions inhibited” value is recorded as more than 95%. In addition, the “effect on DPPI activity (in words)” value in test [2] was “no effect”.

With `Cc1ccc(S(=O)(=O)NC(CCCCN)C(=O)CCl)cc1` (stereo not shown) [TLCK, 1-chloro-3-tosylamido-7-amino-2-heptanone], the Percentage control activity in test [2] (inhibitor 1 mM, preincubated 15 min at 37° C.) is on record as 5%. Also, the “effect on DPPI activity (in words)” value in test [2] is “potently inhibited”.

Turning to `[N-]=[N+]=CC(=O)C(Cc1ccccc1)NC(=O)CNC(=O)C(Cc1ccccc1)NC(=O)OCc1ccccc1` (stereo not drawn) [Z--Phe--Gly--Phe--CHN2] (Cbz-Phe-Gly-Phe-CHN2; configuration not given here), the “less reactive with DPPI than Gly--Phe--CHN2” value on DPPI is listed as 3 orders of magnitude.

As for `CC(C)C[C@H](NC(=O)[C@@H](N)CC(C)C)C(=O)OCc1ccccc1` [benzyl ester derivative of Leu--Leu--OMe], the “more potent than Leu--Leu--OMe in mediating depletion of NK cells” value in the test with NK cells came out at 5 fold.

Turning to `CCCC[C@H](NC(=O)[C@@H](N)CCCC)C(=O)OC` [norleucyl-norleucine methyl ester], the “more active than Leu--Leu--OMe” value in the test with NK cells is recorded as 2 fold.

In [2] (inhibitor 50 μg/ml, preincubated 15 min at 37° C.), Cystatin [listing 1 of 2 here] gave a Percentage control activity of 32%. In [2], the “effect on DPPI activity (in words)” value is “potently inhibited”.

For Cystatin [listing 2 of 2 here], the Percentage control activity of purified human DPPI (% of control activity (at 50 µg/ml)) in test [4] amounted to 32.

Regarding “human dipeptidyl peptidase-I (from UniProt P53634) (enzyme)”, in [5], the generation of granzyme A (BLT esterase) activity in human LAK cells with endogenous DPPI inhibited is less than 90 % reduction. The compound further registered a generation of elastase activity in U-937 cells with endogenous DPPI inhibited for 48 hours in test [6] of 65 % decrease. In addition, in test [7], the processing of newly synthesized cathepsin G to the active form in U-937 cells with endogenous DPPI inhibited (3H-Ile pulse-chase, aprotinin-agarose, radiosequencing) was < 10 % of control. Further, the hydrolysis of synthetic peptide substrate by purified human DPPI (values at 100 µM and 500 µM substrate; value given is at 500 µM) worked out at 0 not printed in the test with Pro-Phe-Arg-AMC; 0 not printed in the test with Gly-Pro-βNA; 0 not printed with Suc-Ala-Ala-Pro-Phe-pNA; 0 not printed with CBZ-Val-Leu-Arg-MNA; 5750 not printed with Gly-Phe-MNA; 0 not printed in the test with CBZ-Arg-Arg-βNA. For the same compound, the hydrolysis of synthetic peptide substrate by purified human DPPI (values at 100 µM and 500 µM substrate; value given is at 500 µM) was 2000 not printed in the test with Ser-Tyr-βNA; 1000 not printed with Ala-Ala-pNA; 120 not printed in the test with Ala-Ala-Val-Ala-pNA; 0 not printed with Suc-Ala-Ala-Ala-pNA; 0 not printed with Arg-Arg-βNA; 0 not printed with Gly-Pro-MNA. Besides, the hydrolysis of synthetic peptide substrate by purified human DPPI (values at 100 µM and 500 µM substrate; value given is at 500 µM) with Ser-Tyr-MNA worked out at 1750 not printed; in the test with Gly-Phe-pNA it was 380 not printed; with Gly-Phe-AMC, 6120 not printed; with Gly-Phe-βNA, 4380 not printed; with Gly-Arg-MNA, 4750 not printed; in the test with CBZ-Gly-Pro-Arg-AMC, 0 not printed. For the same compound, the hydrolysis of synthetic peptide substrate by purified human DPPI (values at 100 µM and 500 µM substrate; value given is at 500 µM) with Asp-Ala-βNA was found to be 1000 not printed.

“murine dipeptidyl peptidase-I (from UniProt P97821) (enzyme)” gave a generation of BLT esterase activity in murine alloreactive CD8(+) T cells with DPPI inhibited in test [8] of 3.3.
